In this assay the target is fibronectin (FN). Briefly: solid phase ELISA, HEK293T/17 lysate on FN-coated wells, detected with Cub7402, normalised for expression.
Sequence of fibronectin (FN) (P02751 32-2477): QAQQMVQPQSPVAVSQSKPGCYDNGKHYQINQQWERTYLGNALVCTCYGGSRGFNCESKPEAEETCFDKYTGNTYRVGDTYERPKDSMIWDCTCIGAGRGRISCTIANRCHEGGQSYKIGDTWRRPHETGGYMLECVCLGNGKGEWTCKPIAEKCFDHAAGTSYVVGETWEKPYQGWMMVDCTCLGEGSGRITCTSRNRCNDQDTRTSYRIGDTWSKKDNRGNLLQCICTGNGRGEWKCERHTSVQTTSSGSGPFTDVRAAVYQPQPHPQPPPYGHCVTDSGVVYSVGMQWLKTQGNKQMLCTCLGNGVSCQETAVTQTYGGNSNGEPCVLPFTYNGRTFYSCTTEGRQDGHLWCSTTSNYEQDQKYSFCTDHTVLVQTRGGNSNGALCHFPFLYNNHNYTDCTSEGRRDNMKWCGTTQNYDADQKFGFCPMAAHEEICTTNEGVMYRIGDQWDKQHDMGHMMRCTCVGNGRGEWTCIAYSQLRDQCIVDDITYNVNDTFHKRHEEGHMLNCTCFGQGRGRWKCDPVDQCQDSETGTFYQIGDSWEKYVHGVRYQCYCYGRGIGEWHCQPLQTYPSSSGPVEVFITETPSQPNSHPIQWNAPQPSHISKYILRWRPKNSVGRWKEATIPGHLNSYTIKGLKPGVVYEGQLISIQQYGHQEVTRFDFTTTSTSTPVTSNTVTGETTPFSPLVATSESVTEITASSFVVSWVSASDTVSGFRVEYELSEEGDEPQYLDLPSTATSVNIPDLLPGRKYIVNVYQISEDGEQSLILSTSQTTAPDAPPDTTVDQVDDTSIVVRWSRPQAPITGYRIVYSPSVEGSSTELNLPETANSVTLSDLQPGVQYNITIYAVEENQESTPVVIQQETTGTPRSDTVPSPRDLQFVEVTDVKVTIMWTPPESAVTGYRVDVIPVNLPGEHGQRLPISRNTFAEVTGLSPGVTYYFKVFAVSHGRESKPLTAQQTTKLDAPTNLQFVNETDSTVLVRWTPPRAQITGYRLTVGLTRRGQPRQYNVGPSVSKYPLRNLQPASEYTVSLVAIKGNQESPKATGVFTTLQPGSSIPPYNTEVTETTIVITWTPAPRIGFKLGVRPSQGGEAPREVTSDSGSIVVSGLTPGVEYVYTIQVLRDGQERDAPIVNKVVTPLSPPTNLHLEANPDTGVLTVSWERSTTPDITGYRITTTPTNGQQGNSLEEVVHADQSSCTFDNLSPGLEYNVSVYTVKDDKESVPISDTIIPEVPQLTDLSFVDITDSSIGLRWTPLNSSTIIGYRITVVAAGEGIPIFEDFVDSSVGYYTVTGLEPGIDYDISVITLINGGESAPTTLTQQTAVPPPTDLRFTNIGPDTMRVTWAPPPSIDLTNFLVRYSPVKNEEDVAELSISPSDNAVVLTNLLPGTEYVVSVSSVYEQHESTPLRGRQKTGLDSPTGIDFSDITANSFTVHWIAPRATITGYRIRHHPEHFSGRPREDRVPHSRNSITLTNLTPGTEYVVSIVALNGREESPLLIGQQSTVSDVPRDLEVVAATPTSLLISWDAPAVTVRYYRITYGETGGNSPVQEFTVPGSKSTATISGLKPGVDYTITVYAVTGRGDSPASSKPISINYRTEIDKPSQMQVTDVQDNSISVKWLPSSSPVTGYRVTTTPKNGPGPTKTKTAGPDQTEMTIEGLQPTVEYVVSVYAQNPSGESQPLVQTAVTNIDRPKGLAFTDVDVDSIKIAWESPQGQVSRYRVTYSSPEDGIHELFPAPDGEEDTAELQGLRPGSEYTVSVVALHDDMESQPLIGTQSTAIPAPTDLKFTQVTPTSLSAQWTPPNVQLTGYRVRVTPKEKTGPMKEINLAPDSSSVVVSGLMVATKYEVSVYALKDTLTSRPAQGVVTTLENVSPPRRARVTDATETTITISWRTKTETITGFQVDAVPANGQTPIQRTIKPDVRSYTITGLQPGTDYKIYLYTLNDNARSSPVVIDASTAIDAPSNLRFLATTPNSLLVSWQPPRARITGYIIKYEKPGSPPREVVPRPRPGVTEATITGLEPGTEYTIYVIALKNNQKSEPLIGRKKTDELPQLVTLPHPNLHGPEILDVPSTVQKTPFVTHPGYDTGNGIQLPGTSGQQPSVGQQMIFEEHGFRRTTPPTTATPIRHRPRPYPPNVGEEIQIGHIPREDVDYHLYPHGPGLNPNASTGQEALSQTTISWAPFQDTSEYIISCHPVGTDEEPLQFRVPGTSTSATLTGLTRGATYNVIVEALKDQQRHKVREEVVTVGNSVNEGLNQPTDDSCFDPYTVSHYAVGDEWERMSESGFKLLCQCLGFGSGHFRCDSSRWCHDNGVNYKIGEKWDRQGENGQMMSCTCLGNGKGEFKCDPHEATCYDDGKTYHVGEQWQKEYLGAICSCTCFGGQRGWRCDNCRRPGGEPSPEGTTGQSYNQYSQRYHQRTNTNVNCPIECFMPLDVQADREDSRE

The substance “N-terminal deletion product of TG2 (Δ1-15) (from UniProt P21980 16-687) (enzyme)” returned a binding capacity of the wild type of 40%. Substance “TG2 FN binding site mutant (D94A, D97A) (from UniProt P21980 2-687) (enzyme)” returned a binding compared to wild type TG2 of 50%.

The values above are taken from patent publication US20140199325A1.
